Residue numbers refer to the chain shown, from its start. Where two headings read alike, the source gives them in different places.
Key:
Assay in all cases: FRET
[1] = biological target: T1, HsMSH2;HsMSH3 (sortase/Cy3) (Homo sapiens;Homo sapiens, UniProt P43246;P20585 1-934;1-1137, |)
[2] = biological target: T2, HsMSH2;HsMSH6 (sortase/Cy3) (Homo sapiens;Homo sapiens, UniProt P43246;P52701 1-934;1-1360, |)
[3] = biological target: T1, HsMSH2;HsMSH3 (sortase/Cy3); remark: listed apart in the source
[4] = biological target: T2, HsMSH2;HsMSH6 (sortase/Cy3); remark: listed apart in the source
[5] = biological target: T1, HsMSH2;HsMSH3 (sortase/Cy3); remark: listed apart in the source
[6] = biological target: T2, HsMSH2;HsMSH6 (sortase/Cy3); remark: listed apart in the source

B1: 41-mer G/T Cy5 (dsDNA)
DNA 1: GCTTAGGATCATCGAGGATCGAGCTCGGTGCAATTCAGCGG
DNA 2: CCGCTGAATTGCACCGAGCTTGATCCTGCATGATCCTAAGC
modifications: amino-C6 dT at position 12 of top strand
Question: Does B1 bind [1]?
Answer: no binding

Question: Does B1 bind [2]?
Answer: binds

B2: 41-mer G/C Cy5 (dsDNA)
DNA 1: B1 DNA 1
DNA 2: B1 DNA 2 with T21C, G28C, C29G
modifications: amino-C6 dT at position 12 of top strand
Question: Does B2 bind [3]?
Answer: no binding

Question: Does B2 bind [4]?
Answer: no binding

B3: 41-mer G/+(CA)4 Cy5 (dsDNA)
DNA 1: B1 DNA 1
DNA 2: CCGCTGAATTGCACCGAGCTCACACACACGATCCTCGATGATCCTAAGC
modifications: amino-C6 dT at position 12 of top strand
Question: What does the source list for B3?
Answer: binding result [5]: binds; binding result [6]: binds
